From publication PMC4960544, “Production of full-length soluble Plasmodium falciparum RH5 protein vaccine using a Drosophila melanogaster Schneider 2 stable cell line system” (Scientific Reports, 2016)

Tests used:
[1] = target: basigin (Homo sapiens) (UniProt P35613); assay: SPR; settings: cited from earlier work
[2] = single-cycle GIA with purified rabbit total IgG; settings: glycan lost; control: v5.0 (native sequons, glycosylated)
[3] = rabbit serum anti-PfRH5 v2.0 IgG ELISA; settings: glycan lost; control: v5.0 (native sequons, glycosylated)
[4] = GIA versus anti-PfRH5 IgG concentration, fitted curves; settings: glycan lost; control: v5.0 (native sequons, glycosylated)

Sequence of basigin (Homo sapiens) (P35613 22-325): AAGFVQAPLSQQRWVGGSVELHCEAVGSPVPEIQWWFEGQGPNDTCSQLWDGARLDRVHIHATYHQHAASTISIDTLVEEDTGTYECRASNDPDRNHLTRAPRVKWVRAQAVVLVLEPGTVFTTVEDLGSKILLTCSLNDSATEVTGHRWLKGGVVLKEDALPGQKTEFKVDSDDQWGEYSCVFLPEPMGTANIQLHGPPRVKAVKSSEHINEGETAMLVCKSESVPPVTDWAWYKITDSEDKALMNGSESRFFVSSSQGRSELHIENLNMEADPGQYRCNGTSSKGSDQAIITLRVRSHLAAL

## PfRH5 (from UniProt Q8IFM5)
[1]
  Kd: 1.5 µM

B1: PfRH5 (reticulocyte-binding protein homolog 5): v3.0 (four Asn to Gln) (protein)
parent chain: MIRIKKKLILTIIYIHLFILNRLSFENAIKKTKNQENNLTLLPIKSTEEEKDDIKNGKDIKKEIDNDKENIKTNNAKDHSTYIKSYLNTNVNDGLKYLFIPSHNSFIKKYSVFNQINDGMLLNEKNDVKNNEDYKNVDYKNVNFLQYHFKELSNYNIANSIDILQEKEGHLDFVIIPHYTFLDYYKHLSYNSIYHKSSTYGKCIAVDAFIKKINETYDKVKSKCNDIKNDLIATIKKLEHPYDINNKNDDSYRYDISEEIDDKSEETDDETEEVEDSIQDTDSNHTPSNKKKNDLMNRTFKKMMDEYNTKKKKLIKCIKNHENDFNKICMDMKNYGTNLFEQLSCYNNNFCNTNGIRYHYDEYIHKLILSVKSKNLNKDLSDMTNILQQSELLLTNLNKKMGSYIYIDTIKFIHKEMKHIFNRIEYHTKIINDKTKIIQDKIKLNIWRTFQKDELLKRILDMSNEYSLFITSDHLRQMLYNTFYSKEKHLNNIFHHLIYVLQMKFNDVPIKMEYFQTYKKNKPLTQ
[2]
  other: immunogenicity (growth inhibition by induced IgG), EC50: increases, 8.4 vs >10
[3]
  other: immunogenicity, other: median PfRH5-specific IgG: increases, 535 vs 40

B2: PfRH5 (reticulocyte-binding protein homolog 5): v2.0 (four Thr to Ala) (protein)
parent chain: MIRIKKKLILTIIYIHLFILNRLSFENAIKKTKNQENNLTLLPIKSTEEEKDDIKNGKDIKKEIDNDKENIKTNNAKDHSTYIKSYLNTNVNDGLKYLFIPSHNSFIKKYSVFNQINDGMLLNEKNDVKNNEDYKNVDYKNVNFLQYHFKELSNYNIANSIDILQEKEGHLDFVIIPHYTFLDYYKHLSYNSIYHKSSTYGKCIAVDAFIKKINETYDKVKSKCNDIKNDLIATIKKLEHPYDINNKNDDSYRYDISEEIDDKSEETDDETEEVEDSIQDTDSNHTPSNKKKNDLMNRTFKKMMDEYNTKKKKLIKCIKNHENDFNKICMDMKNYGTNLFEQLSCYNNNFCNTNGIRYHYDEYIHKLILSVKSKNLNKDLSDMTNILQQSELLLTNLNKKMGSYIYIDTIKFIHKEMKHIFNRIEYHTKIINDKTKIIQDKIKLNIWRTFQKDELLKRILDMSNEYSLFITSDHLRQMLYNTFYSKEKHLNNIFHHLIYVLQMKFNDVPIKMEYFQTYKKNKPLTQ
[4]
  other: immunogenicity (antibody quality, GIA per antigen-specific IgG), EC50: no change, median EC50 of 129 μg/mL (95% CI 80.7–186.7 μg/mL) anti-PfRH5 IgG
[2]
  other: immunogenicity (growth inhibition by induced IgG), EC50: increases, 4 vs >10
[3]
  other: immunogenicity, other: median PfRH5-specific IgG: increases, 278 vs 40

B3: PfRH5 (reticulocyte-binding protein homolog 5): v4.0 (N38Q and N214Q) (protein)
parent chain: MIRIKKKLILTIIYIHLFILNRLSFENAIKKTKNQENNLTLLPIKSTEEEKDDIKNGKDIKKEIDNDKENIKTNNAKDHSTYIKSYLNTNVNDGLKYLFIPSHNSFIKKYSVFNQINDGMLLNEKNDVKNNEDYKNVDYKNVNFLQYHFKELSNYNIANSIDILQEKEGHLDFVIIPHYTFLDYYKHLSYNSIYHKSSTYGKCIAVDAFIKKINETYDKVKSKCNDIKNDLIATIKKLEHPYDINNKNDDSYRYDISEEIDDKSEETDDETEEVEDSIQDTDSNHTPSNKKKNDLMNRTFKKMMDEYNTKKKKLIKCIKNHENDFNKICMDMKNYGTNLFEQLSCYNNNFCNTNGIRYHYDEYIHKLILSVKSKNLNKDLSDMTNILQQSELLLTNLNKKMGSYIYIDTIKFIHKEMKHIFNRIEYHTKIINDKTKIIQDKIKLNIWRTFQKDELLKRILDMSNEYSLFITSDHLRQMLYNTFYSKEKHLNNIFHHLIYVLQMKFNDVPIKMEYFQTYKKNKPLTQ
[2]
  other: immunogenicity (growth inhibition by induced IgG), EC50: no change, >10 vs >10
[3]
  other: immunogenicity, other: median PfRH5-specific IgG: increases, 116 vs 40
